# Laboratory results as given in the NTF2 design screens of Basanta et al. (2020).
# Assay: protease stability score; higher = more stable; yeast display proteolysis, trypsin and chymotrypsin;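 also: log10 excess protease needed over predicted unfolded state with 0 meaning unfolded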
row,Sequence,protease stability score
1,DEENRKILSEVLQALQEGDEHRVRELMDPNARFQVGDKVITGMDNIKKHLQELKRQIKWHFTMKSISAHDGQARATADAEYNHNGRPQDVRVTFRVVFHNGEVHHFSYDYKP,0.583
2,DEENRKQFEEIVRVWNKGDEKRFNNLFDPNARFRYGDKEYKGNQSLMNWWRHLKKQARVEIDVKEVHVDGDKVHAHFRVTFDINGRPETQDVDVVLTVQNGRAKNFDNRIDPEFMRRVQS,0.141
3,DEENRKVFEEILEAKKRGDPKQLERNVDPNVKIYYGDKDFHGRSQLSKELEKVRRELHLHLDFKRIEYHGDSVDVELKVNQQHNGKPDESDRVFHARLHNGRLEHVDARDRK,-0.019
4,DEENRQLAENFLTAMEDNNPEHLSELADPNAKFHYGNKRIHGREKFMHEVEHRNKRIRYSIKSYKITVSGDKIEIDLTFTFRHNGQPDERRRTIHMQMENGQIRSVEYNDNK,0.337
5,DEENRRNFERLIEAIRTNNPSDVEQLVDPNVRFQVGNEVYNGREQFSKDVERLNRQINITIHVRRLHVHGEKVVVDFTYQQEVNGRPNSHRVKWDATLENGKIKSARNTFDEEFEKELTK,-0.091
6,DEENSEAMKRWFNAMETGDPDKVKEQLDENAKIEVGDKRIHGRDQAREEVRKMLERWEIRIKIDEIDVHGEKVVVKFRQHNDRNGEPDNQTVVFIAIFDNGKATRWLLTTDG,0.289
7,DEENSKVYEEWLKAVHNGDPDQVRRQIDPNVKINVGEFDLKGRETVAEHVKKMKDEAHVDQDIHSIEIQGDKVRVDAQYSAEINGKPTSNHLDASVNVKNGQIKRVDVEFSK,-0.131
8,DEENSRILKELLRAIRRGDEERAKELVDPNAKFQVGNKNVHGRDHWAQELRKEKEKIRFDMHIKHVKVDNGKIKVDLRVQVDVDGRPVTNRVKLTVELHNGRLTHLRVEMDEDQERKLKK,0.366
9,DEENTKVAHEWLRNLERNDPKKLNELADPNAHFNVGDKQVQGMDEFERRIEDKKKEMRMKIDDYKARVHNGHVRVDVIVVIDHNGKPDKKRNVQFFDMENGRISRINQQDTG,-0.164
10,DEENVDRAERLLDALRSGNPNTVRELMDKHVKIQIGDKHLHGREQADKKAEDDSKEINEEVKSVDVKATGNNVVIDMDVSATVDGRPVTFHRVLVIRMHNGKIQEIEIRMSEDDIRNYKK,0.207
11,DEENVDRMEEIIRSGDFKELLELADPNVKVVVGDKEYSGRHVATTVLQSLYEQVDHHKVHSVQNEGETVEFDLKVVVNGQEMRMRFVIVFENGRIKTIQIEFTDPRQEEKFLKNIK,1.08
12,DEENVEAAHRFFEALNTNNPDELVKQFDPNARFRYGDTDIHGREHFRKWVKDQLDQIRFTLTSMTANVHNGKVRIELRFIKHHNGRPRDVNQEVRADVHNGKIKNLSVSDRG,0.563
13,DEENVKIARELLKNRTSGNEEHFKRLVDPNARFNVGDTRIHGREEYVKQVRDDFRNSRESIDVRSVSASGDKVEVDMKMHFEHNGQPRSKKVILDAKIHNGRLKEYRVEEEK,-0.045
14,DEENVKIFEEFLRAEQTNDPERAKELIDKDVRIRVGDKTYHGREEWVNTFEEQQRHLKVHYKHVDNTHRNGRVHVRMTFDAVTNGEPKEVTARVEAEFHNGKAKDIQVEYRG,-0.257
15,DEENVKKVQEQLERNDREKLKSNVDKNAEVRVGDKTYHGREDAKTVLEQLARQVDNMQWQSIRIKGEHIDAKMVVQINGKHIQVSIELTVHNGKISHFVIHARNEEVNETLKEAVD,0.516
16,DEENVKQAKKFADAMRHGDPEKLAKLADENAKLVIGDKTVHGRDDLRRERKKLNEHSRQHVDVKSIEAENGRVDVTASMTLSHNGKPDQVHVKIHMRITNGQIEEVHVNYKP,-0.492
17,DEENVKQVERQFKQRDEGNEERVVDQADENASINIGDKRYHGMTDAAKKLVTRLKEIRFERRVVSVTMHNGKFDANYEQTQNTNGNPRTFRYKLVIHMKNGRVKSAHIQEDG,0.062
18,DEENVKVMEHWNKATSNNDEDKHRELADENANFNIGDKRIHGREDFVRWVQELKNRLRIKVEVNSIQAQGDKVTVHYKLKQETNGEPDTRNVKATARIQNGRVRSLTVKDNQ,-0.116
19,DEENVRLARHYADAEARGDHDTIVELLDPNAKVDVGDHEVTGDEHVREELKKKHNQWRAELKDVKASVRGDKLRLKITFVVHINGRPSEQTIDARADIKDGRFKSFSVTIDPQEERHNES,0.395
20,DEEQAHRLNEVLKTGDFERLKDQADPNVRIEVGEKRYHGREQFQKFMTIVQETVDDVHVRSIKVRGDTVNVHMVLNVNGVKAEFIVEAHVDDGRVKEIRFRATDDEQKKNWRKIVQ,1.11
21,DEEQAKKMEHDAKNNNFEKMAEQADPNATAQYGDHRVRGRHEVIDLITHWIEKIDRIEVDSIRVHNGRLEMHFTFEVDGVQVDVVMKAELQNGSLKVLVVTATSEEQQKRLKQAEG,0.234
22,DEEQAKSMVHNMRQNNFEELDKLVDENVRVTVGNKKLHGREEYQKWLENWKKQADRITWDSIDVHGEKIDVEFRAVVNGRTVKQKVDIQFHNGRIKTARYQVTNEELDKIMKEMVE,0.866
23,DEEQAKTIMEKWQKAVQTNNDELADKLYKPNVEWENGDEQRQGKEVVVKMLQKAQKKGVEFQVRKAKVEGDRVEMVYDVRIGDQTVTFTVRMDVHGGRVERVKAEASDEVKKALKKG,0.444
24,DEEQAKTVMEEWAKAVQKGNTEKLKKLYKPDVEWKNGDKKNQGVDQVETQVKKAKDQGVEFQVRKAEVKGNRVRVVYDAKVGDKTVTFTVEFDVDGGKIERVRVEVDEEAKKVQKQG,0.322
25,DEEQARRFREFMEVVRQGDEEKIKRYVDPNARVEVGEETLHGREDIAEWWQKVVRQIRVDITITKMSVSNGKLEIHARAQYEHNGTPEDNRQVIVIQWHNGVAKTIRMEKDG,0.653

row,Sequence,protease stability score
1,DEEQDARRIAELLDKVFRNNDEDQFMRLMDPNAEVVVGDKTYRGREQARSAMSEIVKHFDHVHLKLDSFSNHNGRVTASNTLHADSNGKKRKVKVTIHFDVKGDKAVIKHLTIE,0.866
2,DEEQEARDQIKKYLDIFRTGDPDQAKKLFDKDAEVRIGDKHVRGREQISDFFKKLLHKADHVEYTIQDYDVHGDKVTVHLTVVINVNGDERRNTMVIVIKVQGEKERVQSVRVG,1.09
3,DEEQEKHVSHYLELQKHGNEDELLRTVDPNATATVGDKEYHGMKHVAHHLVNTLKRINVKIDRLDLKVEGNTARIDQVRVQKTNGKPDRYRLKQTVQFHNGRFKRVTADVRR,-0.14
4,DEEQEKTIHRAHKHNDEDSFRKLFDKDATMQIGNKTFHGREEVETAVTQWHTQVDHLRVDHMRVTNGKLQIDFTAVINGQRIELRVKIKANNGKVKSVKIQARSEEDNEHLKKELD,0.407
5,DEEQHNFANKVWEAITKGDPDEIRRLFDENVRVKVGNKTITGREELSETMEKIKKHLRMRVQVDEIEFDGDQIRVHFTANLNVNGRPVEYRAELIMHVHDGRVKHMHLRVPEQVERELEK,1.05
6,DEEQHSVADQFNRDLRQGDPDTIRKLLDKDADLRVGDKDLHGRENLIDHMRKMHKKMQVNVDVDSVEDHNGKVIIQATVVEHHNGKPKTYQVDARLHADNGKIKNADFQETS,-0.115
7,DEEQIKDLLERLMRAQQHGDPDRMANYLDENVRVRIGEKDISGREQYKDWNQEQVERIDHFQVHHIEVQGDKAKIDMEMKVDGKRFRFTVRMHIRDGRIDEFRFDPTVQRKIET,0.97
8,DEEQIVNRLWTEAQKNWEEGNETEIANQFDPNARVNVGEKDYHGTEQIMKWVKEILRHADSVRYSIDSIDVNGDTVYVHFTMVMRHNGQKESERIIATMKVDNGEARFTDIKQG,0.737
9,DEEQKKHVKEMIEAERTGNEEQARKLVDEDVRANYGDHEVHGRETLRKHVRDVKREWSVQIDDVKLRVHNGRVQMHFDFVRDENGRPEKMTATATAEAHNGKIKEINRQDHK,-0.204
10,DEEQLDLNRRWMTALKTNNPDDAINLIDPNAKVHVGDKTLSGRENIKTYLKHLIHESRFRFRVQSMNAKNGQVDVSVKQTQSHNGQPSTNRIVVRMEVENGTITSNTIDSKS,-0.073
11,DEEQLKEYTKEMEHNDEEQFSRMMDKDARVIVGDKTFTGREDAATMLLLIRRRVDHIEIRKITIQGDHVVVHQVVQVNGKEAEFEREVHVKNGHIKEVHIQARDEDDERVLHQAMD,0.468
12,DEEQLKHVAEQLRRLWENNDENQIAQLMDENVEVQVGDKTLHGRDDVRKWAQDLRKSADHVKVHSIRNRGDKVQMDFVVENNGRQTKMEVIAHVHNGRIKSLKLRTK,1.16
13,DEEQLKKVVEKLLQAIQNGNLDEIKKMLKDDVTFVLGDKTFRGVEQAVKIVKQLVDKGAEFHVERLEVKGDQAHVKTYWHAGDKTMELTVTYNVRDDKVEKVQADWSEEVKKARKHD,0.985
14,DEEQLKMARELFEIMHTGDPDQLKEQFPPDAHFNIGDKRVSGMTEFARQVENEHKEQRRSIDIKSMDVNSPHVTIQARFEVEHNGQPHTSTATIQFQFQNGRFLNMRVQSHQ,-0.106
15,DEEQLKTFQQAMRDEEHGNEQRVRDLFDPNARVVYGDKVVHGREEMVKKLKRRKDEMRVELRVREYKVEEDHMSATLEVINDHNGKPDTDKQTVEARMNGDQFEQVNIQKDS,0.17
16,DEEQLKTIREWMNQVQRGNFDQWAKNLDKNAHVDYGDRSVTGREEWQRLMRRQKREIRMQVKVDHVSAQGENIEVQARVRFTHNGQPDETNNKITAKVHNGRVKHMRVEEDK,0.248
17,DEEQLQREANEYNKLRRHGDPDRIVELADPNARAHVGDKRVHGREDMKRMVEEERKHADHITFTDFRVDGDKLEILFVITHNGQSDTRIMTIQWDNGKIKRLEVKNN,0.381
18,DEEQMDRFKDLKHALDEGDEDRLKNLVDPNARMRYGDKEVTGMEDIARQQVQRVNEINVEVDRMHVQVHNGTLEIHATVTENHNGKPKKYTFRATARAENGRFVHRVQETRG,-0.101
19,DEEQMERVMQRVIKALQQGDQETVRKLGKPNGEVQAGDYRNKGPEAFVMAVDVAQKVGNKFEYKETRTKGGKMQTVVKVTVGGKTVEYEVEVVVEGGKAKEWYVRLDDDFVEQAKKS,0.514
20,DEEQMKKVVEKLVQALRNGNTDEIVRMVKEDVTFKLSDETYRGQEDVRKMAKQLQDKGNKMELKHKEAKGDEAEVVTVWHVGDKTAKLKVRYVVKDDKVEKVQADWSEEVVKAYKHG,0.122
21,DEEQMKKVVEQLLQALQNKDPEKIVQLVDEDVEFTLVDEKYKGHEDVRKLVKKLVDAGAEFRIDRHEATGDQAHVDTQWKVGDYTLKVTVTYVVRDDKVEKVEIRWSEEAKKAMKEG,1.11
22,DEEQNEHFSKVLQHGDFDRLAELMDPNAKAEVGDKTVHGREEFQRWIEHFKRQVDHIQYDRIDYHGNEIHASVRVHVNGNTIEFNVSLEFKNGRVTSFMMKARTKDDEDELRRLQS,1.47
23,DEEQNKLADTAMEAWNHGDPDQMVKMLDPNARVRYGDKQFHGRTDVKKWMKRLNDQARMSVTHYKIRVKGEKALLTARLEFEINGQPFRRHVKVVFNNHNGKAKQVDWQFDQDKQRKIES,0.152
24,DEEQNRRIDDMWRAEENGDENRMKELADPNVELQIGDKQVHGMDEYVKEAKKRRDKSEISIEIKQVEVHNGSVHVDFVFTENENGTPDSKRVHVNARFDNGKLKSMSQNDTE,1.1
25,DEEQNTRFHRMLEDLKTGNEERVQDYMDPNVKVRIGNNVLDGREHAATHMVQLNREIRFHIHNFTVQVHNGRLDIKANADADVNGKPIKFSYERYAILHNGTIKRMREQFDEHLKRQLDR,-0.013
